Experimental data reported in US20260008815A1, “CYCLIC PEPTIDE OR SALT THEREOF, AND USES THEREOF” (FUJIFILM Corporation, priority 2023, published 2026).
Bridge positions count the residues as written; N and C are the ends. Ends that are not written are not given here. COCH2 = acetyl group that carries the bridge

biological target: T1, Recombinant Human FGFR2 alpha (IIIc) Fc Chimera Protein (Homo sapiens, UniProt P21802); assay: ELISA binding affinity of enzymatically synthesized peptide to FGFR; settings: ELISA luminescence signal at 10 nmol/L peptide, SEQ ID NO: 47 at 10 nmol/L standardized to 1; enzyme synthesis product
T1 construct: Fc (chimera); purchased R&D systems 712-FR-050
Procedure: The binding affinity of the peptide to FGFR was evaluated using an ELISA method.
The binding affinity of the enzymatically synthesized peptide to FGFR was measured by evaluating the amount of the peptide bound to FGFR by ELISA.
First, 5 ng of Recombinant Human FGFR2 alpha (IIIc) Fc Chimera Protein (R&D systems, 712-FR-050) was immobilized in each well of a 96-well plate, and blocked with Pierce Protein-Free (PBS) Blocking Buffer (Thermo, 37572), and a peptide diluted with Can Get Signal Immunoreaction Enhancer Solution I (TOYOBO, NKB-101) was then added and reacted at room temperature for 3 hours. After washing with 0.05% Tween 20-containing phosphate buffered saline (PBS), an anti-Myc antibody (Cell Signaling, 14038S) diluted with Can Get Signal Immunoreaction Enhancer Solution II (TOYOBO, NKB-101) was added and reacted at room temperature for 2 hours. After washing with 0.05% Tween 20-containing PBS, SuperSignal ELISA Femto Substrate (Thermo, 37075) was added, and the luminescence amount was measured. The dose-response relationship was calculated from using the difference between the luminescence amount in the well in which FGFR was immobilized and the luminescence amount in the well in which FGFR was not immobilized, and the concentration of the peptide at the time of reaction, and the binding affinity to FGFR was evaluated according to the following evaluation criteria. The evaluation result preferably satisfies the evaluation criteria A, B, or C.
In a case where a value of a luminescence signal emitted by the cyclic peptide set forth in SEQ ID NO: 47 at a reaction concentration of 10 nmol/L is standardized to 1, evaluation criteria of the luminescence signal value emitted by the cyclic peptide at a reaction concentration of 10 nmol/L is as follows. • A: 0.7 or more • B: 0.5 or more and less than 0.7 • C: 0.1 or more and less than 0.5 • D: less than 0.1.

T1 sequence (P21802 with tags, fused parts or gaps limits assumed): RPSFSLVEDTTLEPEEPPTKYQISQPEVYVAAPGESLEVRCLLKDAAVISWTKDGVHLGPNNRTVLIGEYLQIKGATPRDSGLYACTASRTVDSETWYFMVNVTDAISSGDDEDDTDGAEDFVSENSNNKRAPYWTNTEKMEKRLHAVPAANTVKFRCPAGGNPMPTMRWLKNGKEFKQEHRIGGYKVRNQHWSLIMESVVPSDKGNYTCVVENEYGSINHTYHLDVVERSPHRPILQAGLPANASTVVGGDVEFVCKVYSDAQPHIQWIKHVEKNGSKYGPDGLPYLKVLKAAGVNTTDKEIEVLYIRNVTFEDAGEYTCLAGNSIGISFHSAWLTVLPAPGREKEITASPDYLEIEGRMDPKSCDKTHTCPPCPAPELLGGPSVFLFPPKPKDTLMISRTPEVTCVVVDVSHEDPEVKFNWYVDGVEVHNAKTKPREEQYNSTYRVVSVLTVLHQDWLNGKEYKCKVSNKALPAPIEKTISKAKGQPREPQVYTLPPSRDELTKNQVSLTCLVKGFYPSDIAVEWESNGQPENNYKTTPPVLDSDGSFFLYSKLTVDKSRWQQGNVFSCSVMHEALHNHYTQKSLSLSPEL

Row | Evaluation result of binding affinity to FGFR | Molecule
1 | A (0.7 or more) | 242 (YCEENYLDPYQYQYFIYFK(COCH2)Y; thioether 2-19 (inferred)) [compound 242]
2 | A (0.7 or more) | 278 (YCEENYLDPEQYQYFLYFK(COCH2)Y; thioether 2-19) [compound 278]

biological target: T2, Recombinant Human FGFR2 alpha (IIIc) Fc Chimera Protein, CF (R&D systems, 712-FR-050) (human, UniProt P21802 22-377); assay: ELISA on plate-bound FGFR2-Fc; settings: not given
T2 construct: bought; not shown: Fc part of the chimera
In short: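 Plate-immobilized FGFR2 alpha (IIIc)-Fc (5 ng/well) incubated with peptide 3 h at room temperature, then anti-Myc antibody 2 h and chemiluminescent ELISA substrate. Signal corrected by subtracting FGFR-free wells; binding affinity scored into categories from the dose-response.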

T2 sequence (P21802 22-377, change not shown): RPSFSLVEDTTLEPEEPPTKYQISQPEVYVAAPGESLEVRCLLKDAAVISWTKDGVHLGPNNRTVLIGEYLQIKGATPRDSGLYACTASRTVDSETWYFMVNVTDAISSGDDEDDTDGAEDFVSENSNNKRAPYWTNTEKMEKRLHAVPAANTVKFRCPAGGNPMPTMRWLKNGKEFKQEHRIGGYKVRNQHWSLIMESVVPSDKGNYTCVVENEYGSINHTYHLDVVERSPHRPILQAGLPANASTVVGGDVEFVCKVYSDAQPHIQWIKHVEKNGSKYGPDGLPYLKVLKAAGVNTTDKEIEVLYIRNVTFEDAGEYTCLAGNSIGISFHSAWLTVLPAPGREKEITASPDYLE

Row | ELISA luminescence signal at 10 nmol/L peptide, relative to SEQ ID NO: 47 (=1) [ratio] | Molecule
3 | ≥ 0.7 | QCQNFITEVQFTYFWHYK(COCH2)T (thioether 2-18) [cyclic peptide SEQ ID NO: 123]
4 | 0.1 to 0.5 | QCWYIQQYIWERYFLWHNK(COCH2)E (thioether 2-19) [cyclic peptide SEQ ID NO: 120]
5 | ≥ 0.7 | LCEINWLSQEQYGYFIEYK(COCH2)T (thioether 2-19) [cyclic peptide SEQ ID NO: 126]
6 | 0.5 to 0.7 | QCENWVNSTQFEFFWQYK(COCH2)T (thioether 2-18) [cyclic peptide SEQ ID NO: 122]
7 | ≥ 0.7 | ECPWNFVNQLQWQYFITYK(COCH2)V (thioether 2-19) [cyclic peptide SEQ ID NO: 129]
8 | ≥ 0.7 | HCDGNWWNSQQFFYLLLYK(COCH2)H (thioether 2-19) [cyclic peptide SEQ ID NO: 130]
9 | ≥ 0.7 | QCRYFWQYVLERYRVRLPK(COCH2)E (thioether 2-19) [cyclic peptide SEQ ID NO: 119]
10 | ≥ 0.7 | YCRDNYFYLEQWQYLYLYK(COCH2)H (thioether 2-19) [cyclic peptide SEQ ID NO: 125]
11 | ≥ 0.7 | CHENYLDPEQYQYFHYFK(COCH2)Y (thioether 1-18 (inferred)) [cyclic peptide SEQ ID NO: 430]
12 | < 0.1 | YRSRKYSSWYVALKR (not fully specified) [linear peptide SEQ ID NO: 35]
13 | 0.1 to 0.5 | DCRDLQLFYIYQYLDALKK (not fully specified; thioether ring (C)-(K(acetyl))) [cyclic peptide SEQ ID NO: 124]
14 | ≥ 0.7 | YCPYNFYNIIQFHYFLTYK(COCH2)T (thioether 2-19) [cyclic peptide SEQ ID NO: 127]
15 | 0.1 to 0.5 | CHENYLDPEQYQYFHYFK(COCH2) (thioether 1-18 (inferred)) [cyclic peptide SEQ ID NO: 431]
16 | 0.1 to 0.5 | CENYLDPEQYQYFHYFK(COCH2)Y (thioether 1-17 (inferred)) [cyclic peptide SEQ ID NO: 432]
17 | ≥ 0.7 | ECQENFVDRQQYWYFLSYK(COCH2)F (thioether 2-19) [cyclic peptide SEQ ID NO: 132]
18 | ≥ 0.7 | PCVQNYFNDLQWIFLQHYK(COCH2)R (thioether 2-19) [cyclic peptide SEQ ID NO: 128]
19 | 0.1 to 0.5 | YCHENYLDPEQYQYFHYFK(COCH2) (thioether 2-19 (inferred)) [cyclic peptide SEQ ID NO: 429]
20 | ≥ 0.7 | DCYWDDQQYSFLQLYK(COCH2)R (thioether 2-16) [cyclic peptide SEQ ID NO: 121]

Second part, the molecule before the results:

Row | Molecule | ELISA luminescence signal at 10 nmol/L peptide, relative to SEQ ID NO: 47 (=1) [ratio]
21 | LCPVPQQTDYLRWYQIIHK(COCH2)Q (thioether 2-19) [cyclic peptide SEQ ID NO: 118] | 0.1 to 0.5
22 | QCENWLSQDQWKYFWQYK(COCH2)I (thioether 2-18; not fully specified; printed as Q-(C)-ENWLSQDQWKYFWQY-(K(acetyl))-I) [cyclic peptide SEQ ID NO: 39] | ≥ 0.7
23 | QCYFLSQYILERYKVHK(COCH2)L (thioether 2-17) [cyclic peptide SEQ ID NO: 42] | ≥ 0.7
24 | NCPNYWSQIQWHYFQAYK(COCH2)Q (thioether 2-18) [cyclic peptide SEQ ID NO: 115] | ≥ 0.7
25 | YCTDNYIDDIQFWYLFLYK(COCH2)Q (thioether 2-19) [cyclic peptide SEQ ID NO: 107] | 0.5 to 0.7
26 | YCTDNYIDDIQFWYLFLYK(COCH2)H (thioether 2-19) [cyclic peptide SEQ ID NO: 114] | ≥ 0.7
27 | QCDQEFYLALYAWTLRSYK(COCH2)L (thioether 2-19) [cyclic peptide SEQ ID NO: 111] | 0.1 to 0.5
28 | DCSGNFFSKEQFHYLELFK(COCH2)K (thioether 2-19; not fully specified; printed as D-(C)-SGNFFSKEQFHYLELF-(K(acetyl))-K) [cyclic peptide SEQ ID NO: 40] | ≥ 0.7
29 | HCQPEYELYYIYLYLNALK(COCH2)I (thioether 2-19) [cyclic peptide SEQ ID NO: 112] | 0.1 to 0.5
30 | LCGNYITPLQWKYFQTYK(COCH2)W (thioether 2-18) [cyclic peptide SEQ ID NO: 41] | ≥ 0.7
31 | QCSYLYQYVFERYKVTVPK(COCH2)D (thioether 2-19; not fully specified; printed as Q-(C)-SYLYQYVFERYKVTVP-(K(acetyl))-D) [cyclic peptide SEQ ID NO: 38] | ≥ 0.7
32 | CRALLRGAPFHLAEC (disulfide 1-15, also called cyclic peptide reported in WO2000/003245A) [cyclic peptide SEQ ID NO: 34] | < 0.1
33 | CRALLRGAPFHLAEK(COCH2) (thioether 1-15) [cyclic peptide SEQ ID NO: 36] | < 0.1
34 | QCYQNWYLYQYLVERYYK(COCH2)D (thioether 2-18) [cyclic peptide SEQ ID NO: 116] | 0.1 to 0.5
35 | LCRNYINPQQWRYFALYK(COCH2)Y (thioether 2-18) [cyclic peptide SEQ ID NO: 108] | ≥ 0.7
36 | LCRNYINPQQWRYFALYK(COCH2)N (thioether 2-18) [cyclic peptide SEQ ID NO: 117] | ≥ 0.7
37 | QCQLNYWDDLQFTYYLQYK(COCH2)V (thioether 2-19) [cyclic peptide SEQ ID NO: 37] | ≥ 0.7
38 | DCFINELQYFYIQQYKK (not fully specified; thioether ring (C)-(K(acetyl))) [cyclic peptide SEQ ID NO: 109] | 0.5 to 0.7
39 | RCINYWSGQQFYFFQQYK(COCH2)F (thioether 2-18) [cyclic peptide SEQ ID NO: 113] | 0.1 to 0.5
40 | QCQTDHQQQLYFIYQYLQK(COCH2)I (thioether 2-19) [cyclic peptide SEQ ID NO: 110] | 0.1 to 0.5
